Reference: PMC4350099
Blank lines part the entries; values can stand above or below the substance they belong to.

Target: 14-3-3ζ (UniProt P63104)
Assay: GST pull-down from co-transfected cells
Settings: reference: wild type

binding against the reference (sites S1495,S1847,S1865,S1917): lost
Substance: Notch4 (Notch4-ICD; Notch4-ΔhN4) ICD (from UniProt Q99466) 4XA (S1495/1847/1865/1917A)

binding against the reference (sites S1495): weaker
Substance: Notch4 (Notch4-ICD; Notch4-ΔhN4) ICD (from UniProt Q99466) S1495A

binding against the reference (sites S1847): weaker
Substance: Notch4 (Notch4-ICD; Notch4-ΔhN4) ICD (from UniProt Q99466) S1847A

binding against the reference (sites S1865): weaker
Substance: Notch4 (Notch4-ICD; Notch4-ΔhN4) ICD (from UniProt Q99466) S1865A

binding against the reference (sites S1917): weaker
Substance: Notch4 (Notch4-ICD; Notch4-ΔhN4) ICD (from UniProt Q99466) S1917A
